Assay results reported in the DeepSol protein solubility set.

Assay: soluble on expression in E. coli; label from the status in PepcDB or PDB records

Sequence | soluble on expression in E. coli
MAKVSLEKDKIKFLLVEGVHQKALESLRAAGYTNIEFHKGALDDEQLKESIRDAHFIGLRSRTHLTEDVINAAEKLVAIGAFAIGTNQVDLDAAAKRGIPVFNAPFSNTRSVAELVIGELLLLLRGVPEANAKAHRGVWNKLAAGSFEARGKKLGIIGYGHIGTQLGILAESLGMYVYFYDIENKLPLGNATQVQHLSDLLNMSDVVSLHVPENPSTKNMMGAKEISLMKPGSLLINASRGTVVDIPALADALASKHLAGAAIDVFPTEPATNSDPFTSPLAEFDNVLLTPHIGGSTQEAQENIGLEVAGKLIKYSDNGSTLSAVNFPEVSLPLHVGRRLMHIHENRPGVLTALNKIFAEQGVNIAAQYLQTSAQMGYVVIDIEADEDVAEKALQAMKAIPGTIRARLLY | soluble
MNHKVHHHHHHIEGRHMDEYKQVDVGKDGMVATAHPLASEIGADVLKKGGNAIDAAVAIQFALNVTEPMMSGIGGGGFMMVYDGKTKDTTIIDSRERAPAGATPDMFLDENGKAIPFSERVTKGTAVGVPGTLKGLEEALDKWGTRSMKQLITPSIKLAEKGFPIDSVLAEAISDYQEKLSRTAAKDVFLPNGEPLKEGDTLIQKDLAKTFKLIRSKGTDAFYKGKFAKTLSDTVQDFGGSMTEKDLENYDITIDEPIWGDYQGYQIATTPPPSSGGIFLLQMLKILDHFNLSQYDVRSWEKYQLLAETMHLSYADRASYAGDPEFVNVPLKGLLHPDYIKERQQLINLDQVNKKPKAGDPWKYQEGSANYKQVEQPKDKVEGQ | soluble
MGSDKIHHHHHHVATYNERLFDGKSFRSKLHYARYLWVNSWIKRWELPSYSMLELGCYDGKTIDFLSNKPATYAGYDANWEGGLDIAKTKWSMHPDYSFHTCEKPADFSADDSMYEVSVCLETLEHIPAADLEAYIVQLSKKTKQYCLVSVPNEKGPVLFFKHIIKSITQEKAQTEAYTLKEFLYGSIGRLDKVARRDCGHKGFDYDALAVLLKKYFTILKTEAIPYPAIPHALGFNVGFILKKN | not soluble
MAHHHHHHMFSSSTGAGAAAAAKPSAGPPSVALATVTVNEDPNIEVLLASKRIQKLTRATDALIARDFVLREEEAILDDLEAYIISLESEVRKAEFQTEELRSRSSLLRPGKRCAIAGENVELSALWNAYGSDMGYLVKRHSLRLAVLEKALATVSTRNPELPVPKPLPPPPVTKTSKTMSAMRDMSQRQKAPS | not soluble
MGSDKIHHHHHHMLCSGYLGHDMEDDCDIIIIGAGIAGTACALRCARAGLSVLLLERAEIPGSKNLSGGRLYTHALAELLPQFHLTAPLERRITHESLSLLTPDGVTTFSSLQPGGESWSVLRARFDPWLVAEAEKEGVECIPGATVDALYEENGRVCGVICGDDILRARYVVLAEGANSVLAERHGLVTRPAGEAMALGIKEVLSLETSAIEERFHLENNEGAALLFSGRICDDLPGGAFLYTNQQTLSLGIVCPLSSLTQSRVPASELLTRFKAHPAVRPLIKNTESLEYGAHLVPEGGLHSMPVQYAGNGWLLVGDALRSCVNTGISVRGMDMALTGAQAAAQTLISACQHREPQNLFPLYHHNVERSLLWDVLQRYQHVPALLQRPGWYRTWPALMQDISRDLWDQGDKPVPPLRQLFWHHLRRHGLWHLAGDVIRSLRCL | not soluble
MTGYGSLFERLNGDADKRVGWSREVSAMASVAAHLGKMLSTRAGSVQTLSDYGLPDLNDMRLSLHDSLSQARSAIEGFIEAYEPRLSDVRVVSLPRDNDQLRLAFSIEGLLEVEGFKRQVSFSACLDGSGQVKVS | not soluble
MGSDKIHHHHHHMSVVDFSKLYPDNRQEGETVLRQAQLVMLRMLKIIDYICRKHDISYWMCSGTLLGAVRHKGFIPWDDDLDICMIREDYERFVEIAVNEFPEDMMLQTRETDPHYHYLPLPCKVRDKKSFILSPGYEDEECEKGLFIDIFPMDRYHKQKLPFMFEKMVKVYNTFICKSLDAIYFKDESIDKKILAFFHPVFHKLVLQYMKFAKKLIDKNRGLGTDCRLGHGFDTLWKRYLRFDDIFPVVEIDFEDSKFFAPHRPDVYLTTLYGPNYMTPPPEKQRLAAQHAHEIKPII | not soluble
MPMTLDLQPGQRLARGVARHLRAHGFVSVEEFVPARGLRVDVMGLGPKGEIWVIECKSSRADFQADAKWQGYLEWCDRYFWAVDMEFPAELLPAESGLLIADAYDAEIVRMAPEQKLAPARRKVLIQKFATHAARRLQALRDPEGHG | not soluble
MNNNLLIIAGPTAVGKSDLSVDLAKKLNGEIISVDSMQIYKYMDIGSAKISKEEMGGIPHYLIDFVDPSKEFSVAEFKDLTTEKIKDIQSRGKLPILVGGTGLYINSIICNMNFAESDKDEEYREELEKIANEHGNEYLHEMLKDIDLESYNSIHFNNRKRVIRALETYKLTGKPFSSFKAKNSIYETPYNIYYYVLNMDRAKLYDRINKRVDIMFEKGLLEEVKNLKAMGLTDDMQSMKGIGYKEVLYYLDGKISLEQCIEMIKQGSRNYAKRQLTWFRKDPRAIFIDKDTFASEEDISSKIINDIINSMAGDPNSLEHHHHHH | not soluble
HAIFEREGNNLYCEVPINFTMAALGGEIEVPTLDGRVNLKIPGETQTGKLFRMRGKGVKSVRGGAQGDLLCRVVVETPVGLNEKQKQLLKELQESFGGPTGENN | not soluble
DIGCYTLGALPPFREQDSATNMGSSLGISNGVFRSTDQVPVAVIGDSTFFHSGIEGVANAVYNNTAEIIVVLDNRSTAMTGQQPSPSTAIDIGNVCRAMGIEYVETFDPFDVDAGEKAVQQAAEYVKKTLKPAVIIAKRACALEVLEKVDSETPKAYVDSNRCT | not soluble
MRVAYVLSSPRAASHKLGQMILPQLEAGTHGVEVVGIFFFDDNTLVLQKGNPIGERLAKVAKEKGILLMMCDLCALERGLAEGEPRWCTPEGEGRKTPGTCRVSPHVVEGVEVGCFPDLYRALAGRVDQVITL | soluble
MSIEVIAVRLTKGMDLKLSLAKLVAEHDIKAGSIASCVGCISDLNLRLAGAESTLTKREPFEIVSVMGTLTPEHQHVHISVSDREGRVWGGHLLEGTVIDTTAELIIHSYSELEFTRAMDDSTGYTELQVNPSKLEHHHHHH | not soluble
MGSDKIHHHHHHVKFFVIGDVTVDHLYHLDRLPAPGEEVAPTRATMKPGGAGGTISVTLARLGHSVTLAARVGDDPFAEYALASVRESGVLQAAIQIDPEHLTSTITVMQTPDGQRAMISDGAANRQLDPAKLKKKDIEGADALIVSAYSLTEGPQREYTLKAIETAKKAKKPVPVFIDLGTGAVNKVGTDLIENVIGADYLTLNQHELLALTDTTSISAALAQLGDAGARRVIVKVGRMGSIVWTPTETELVDPIKPEGRVVDSTGAGDTFTAAFAHAVLTGHSLPQAARIGNAAGALAATRVGAQARPITLADLEAALAR | not soluble
MGGSHHHHHHGMASALGADGFVPLGTLLQLPQFRGFSAEDVQRVVDTNRKQRFALQLGDPSTGLLIRANQGHSLQVPKLELMPLETPQALPPMLVHGTFWKHWPSILLKGLSCQGRTHIHLAPGLPGDPGIISGMRSHCEIAVFIDGPLALADGIPFFRSANGVILTPGNTDGFLLPKYFKEALQLRPTRKPLSLAGDEETECQSSPKHSSRERRRIQQ | not soluble
MPLADIADVDIDPKGVFKYILIQVTDNSTKQQKFVVRGYYRCSFHDDILQETKSSAPSDLKLKCVGGGRIKHDEIGKDILVYGYSYGYGRADHQIAVDILKQKYPDYNIHFSNDGY | not soluble
MKTLSTMATLLALSLPVMAQECASDIMRTAPNLRYVYSTQGTVKDLHTGLTWMRCTFGKEWNAEQGRCTGQAQPLRWQAALQEVQAINHPGSRHRLHQFAGVKQWRMPNIKELSSLTEQACFAPAANETAFASGLVTEVGNYAAYLWSNTTRIEREEAWTWDAINGEIYAYSIHAHEMGLLLVADELEHHHHHH | soluble
MSGVRAVRISIESACEKQVHGVGLDGTETYLPPLSMSQNLARLAQRIDFSQGSGSEEGEAAGTEGDAQDWPGAGSSADQDDEEGVVKFQPSLWPWDSVRNNLRSALTEMCVLYDVLSIVRDKKFMTLDPVSQDALPPKQVFVDFNLEHHHHHH | not soluble
